Legend:
RET [1] = biological target: T1, RET (Mus musculus, UniProt P35546); assay: RET phosphorylation in control transfected (mGFP) N2A cells; assay type: cell-based, murine; conditions: 2 nM GDNF or 1 nM ARTN
T1 construct: endogenous in cells
Description: (§1) Since the original report argued that XIB4035 displaces GDNF binding to GFRα1 expressing cells (FIG. 2 in Tokugawa et al., Neurochem Int 42, 81-86 (2003).), potentially ARTN, on TH-luciferase activity and Ret phosphorylation. […] In this experiment, cells were treated with GDNF or ARTN with or without XIB4035 for 10 minutes and cell lysates were either collected immediately or treatment was washed out and replaced with growth media for 30, 60, or 120 minutes. […] Therefore, we tested cells expressing only one GFRα using either N2A cells (which express RET) transfected with GFRα1 or GFRα3 expression constructs, or B(E)2-C cells, which express only GFRα2 together with RET. […] The GFRα1 or GFRα3 transfected N2A cells were then treated with XIB4035 alone, the appropriate ligand for the expressed receptor alone, or XIB4035 and ligand in combination for 10 minutes, and collected lysates immediately after treatment or 60 minutes after washout. […] Similar results were obtained with GFRα2 and NRTN using B(E)2-C cells (FIG. 8). Thus, XIB4035 is a positive modulator of signaling by GDNF family ligands and their receptors, not an agonist for GFRα1 as previously reported. […]

[2] = system: GFRα/RET receptor signaling; assay: Tyrosine hydroxylase promoter luciferase reporter assay in SH-SY5Y-THpGL3 cells; assay type: cell-based, human; conditions: for maximal effect, luciferase activity: 18 nM ligand alone; for minimal ligand dose necessary to induce luciferase activity above control / luciferase activity versus ligand concentration: ligand alone; for minimal ligand dose necessary to induce luciferase activity above control: 10 minutes, washout, overnight; for luciferase activity versus ligand concentration: luciferase measured 18 hours later
Description: (§2) One goal of these studies was to determine if XIB4035 could be used for treating SFN in humans. Using the Neuro2A (N2A) murine neuroblastoma cell line, Tokugawa et al. (supra) reported XIB4035 as a competitive agonist for the GDNF receptor GFRα1 that activates the RET receptor. Since populations of DRG sensory neurons express different GFRα receptors, thus making them preferentially responsive to the particular ligands, it was important to determine if XIB4035 was specific to GFRα1 or could act on other family members. Since PSPN has no effect on peripheral sensory neurons, the GFRα1, GFRα2, and GFRα3 receptors were the focus of these studies. The SH-SY5Y, a human neuroblastoma cell line expressing mRNA for GFRα1, GFRα2, and GFRα3, was used to perform two cell-based assays; immunoblots measuring RET phosphorylation and a luciferase reporter assay using the tyrosine hydroxylase (TH) promoter. For the latter two paradigms were used, either overnight treatment immediately followed by luciferase activity measurements or 10 minute treatments followed by washout and overnight incubation prior to measurements. GDNF and ARTN induced robust TH-luciferase activity in a dose dependent manner (FIG. 3E). Because the responses to GDNF and ARTN were more robust, these two factors were chosen for further analysis.
The tyrosine hydroxylase promoter was cloned into the pGL3 basic vector (Promega, Madison, Wis., USA) at the Mlu I and Hind III sites, as previously described (Zwick, supra) (TH-pGL3). Briefly, a 2 Kb promoter region upstream from the transcription initiation site of the rat TH gene was cloned from genomic DNA using the primer sequences, […] and […]. SH-SY5Y cells were co-transfected with the TH-pGL3 and the pBabe-puromycin expression vectors at a molar ratio of 10:1. Cells were selected for stable puromycin resistance at a final concentration of 0.5 μg/ml of puromycin-dihydrochloride. Stable colonies were selected and tested for TH-directed luciferase response to GDNF family ligand stimulation. One stable clone, SH-SY5Y-THpGL3, with good signal-to-noise ratio was selected for use in the experiments.
SH-SY5Y-THpGL3 cells were maintained in DMEM/F12, 5% FBS, and 1% penicillin/streptomycin and plated on collagen coated plates (4 μg/ml). Neuro-2A cells were grown in MEM, 5% FBS, and 1% penicillin/streptomycin. BE(2)-C cells were grown in DMEM/F12 media containing 5% FBS and 1% penicillin/streptomycin. PC-12 cells were maintained in media containing RPMI-1640, 10% horse serum, 5% FBS, and 1% penicillin/streptomycin on collagen coated plates. For luciferase assays, cells were treated for either 10 minutes with washout or overnight with various molecules and assayed for firefly luciferase 16-24 hours post-treatment using the luciferase assay system (Promega, Madison, Wis., USA).

GFRα3/RET = biological target: T2, GFRα3/RET (UniProt O60609+P35546); assay: RET phosphorylation in N2A cells transfected with GFRα3; assay type: cell-based, human GFRα3 in murine N2A cells; conditions: 1 nM ARTN
T2 construct: N2A cells (which express RET) transfected with GFRα1 or GFRα3 expression constructs; expressed in transfected cells; host or cells: Neuro2A (N2A) cells; GFRα3 plasmid was a gift from Dr. Milbrandt; RET is endogenous
Description: (§3) Since the original report argued that XIB4035 displaces GDNF binding to GFRα1 expressing cells (FIG. 2 in Tokugawa et al., Neurochem Int 42, 81-86 (2003).), potentially ARTN, on TH-luciferase activity and Ret phosphorylation. […] In this experiment, cells were treated with GDNF or ARTN with or without XIB4035 for 10 minutes and cell lysates were either collected immediately or treatment was washed out and replaced with growth media for 30, 60, or 120 minutes. […] Therefore, we tested cells expressing only one GFRα using either N2A cells (which express RET) transfected with GFRα1 or GFRα3 expression constructs, or B(E)2-C cells, which express only GFRα2 together with RET. […] The GFRα1 or GFRα3 transfected N2A cells were then treated with XIB4035 alone, the appropriate ligand for the expressed receptor alone, or XIB4035 and ligand in combination for 10 minutes, and collected lysates immediately after treatment or 60 minutes after washout. […] Similar results were obtained with GFRα2 and NRTN using B(E)2-C cells (FIG. 8). Thus, XIB4035 is a positive modulator of signaling by GDNF family ligands and their receptors, not an agonist for GFRα1 as previously reported.
(§4) For phosphorylated Ret immunoblot experiments, cells were treated with various combinations of molecules for 10 minutes and either collected immediately or had treatment washed out and returned to control treatment media for the times indicated prior to cell collection. Lysates were collected in buffer containing: 50 mM Tris-HCL, 1% TX-100, 0.25% Deoxycholic acid, 150 mM sodium chloride, 1 mM EDTA, 0.1 mM sodium fluoride, 0.1 mM sodium pyrophosphate, 0.02 mM sodium orthovanadate, and protease inhibitors Immunoblots were blocked in 5% bovine serum albumin in tris-buffered saline+0.2% Tween 20+0.1 mM sodium fluoride, 0.1 mM sodium pyrophosphate, and 0.02 mM sodium orthovanadate and probed in blocking solution using anti-phospotyrosine (4G10) mouse monoclonal antibody (1:2000; EMD Milipore Corp., Billerica, Mass.). […]

GFRα2/RET = biological target: T3, GFRα2/RET (Homo sapiens, UniProt O00451+P07949); assay: NRTN/GFRα2-induced RET phosphorylation in B(E)2-C cells; assay type: cell-based; conditions: 2 nM NRTN alone, 10 minutes, then 60 minutes growth medium
T3 construct: B(E)2-C cells, which express only GFRα2 together with RET; endogenous in cells; host or cells: B(E)2-C / BE(2)-C cells
Description: B(E)2-C cells, which express GFRα2, were treated under different conditions (no treatment, 2 nM NRTN, or 2 nM NRTN with 20 μM XIB4035) for 10 minutes. Cells were either lysed immediately or after incubation in growth medium for an additional 60 minutes.
as §1, with “8).” for “8). Thus, XIB4035 is a positive modulator of signaling by GDNF family ligands and their receptors, not an agonist for GFRα1 as previously reported.”

RET [3] = biological target: T4, RET (Homo sapiens, UniProt P07949+P56159); assay: RET phosphorylation phospho-tyrosine Western blot in SH-SY5Y cells; assay type: cell-based; conditions: 2 nM GDNF, two or 10 minutes
T4 construct: endogenous in cells; host or cells: SH-SY5Y (SH-SY5Y-THpGL3) human neuroblastoma cells
Description: as §2
Since the original report argued that XIB4035 displaces GDNF binding to GFRα1 expressing cells (FIG. 2 in Tokugawa et al., Neurochem Int 42, 81-86 (2003).), potentially ARTN, on TH-luciferase activity and Ret phosphorylation. […] In this experiment, cells were treated with GDNF or ARTN with or without XIB4035 for 10 minutes and cell lysates were either collected immediately or treatment was washed out and replaced with growth media for 30, 60, or 120 minutes. […] Therefore, we tested cells expressing only one GFRα using either N2A cells (which express RET) transfected with GFRα1 or GFRα3 expression constructs, or B(E)2-C cells, which express only GFRα2 together with RET. […]

GFRα1/RET = biological target: T5, GFRα1/RET (UniProt P35546+Q62997); assay: RET phosphorylation in N2A cells transfected with GFRα1; assay type: cell-based, rat GFRα1 in murine N2A cells; conditions: 2 nM GDNF
T5 construct: N2A cells (which express RET) transfected with GFRα1 or GFRα3 expression constructs; expressed in transfected cells; host or cells: Neuro2A (N2A) cells; GFRα1 plasmid was a gift from Dr. Milbrandt; RET is endogenous
Description: as §3, §4

T1 sequence (P35546 29-1115): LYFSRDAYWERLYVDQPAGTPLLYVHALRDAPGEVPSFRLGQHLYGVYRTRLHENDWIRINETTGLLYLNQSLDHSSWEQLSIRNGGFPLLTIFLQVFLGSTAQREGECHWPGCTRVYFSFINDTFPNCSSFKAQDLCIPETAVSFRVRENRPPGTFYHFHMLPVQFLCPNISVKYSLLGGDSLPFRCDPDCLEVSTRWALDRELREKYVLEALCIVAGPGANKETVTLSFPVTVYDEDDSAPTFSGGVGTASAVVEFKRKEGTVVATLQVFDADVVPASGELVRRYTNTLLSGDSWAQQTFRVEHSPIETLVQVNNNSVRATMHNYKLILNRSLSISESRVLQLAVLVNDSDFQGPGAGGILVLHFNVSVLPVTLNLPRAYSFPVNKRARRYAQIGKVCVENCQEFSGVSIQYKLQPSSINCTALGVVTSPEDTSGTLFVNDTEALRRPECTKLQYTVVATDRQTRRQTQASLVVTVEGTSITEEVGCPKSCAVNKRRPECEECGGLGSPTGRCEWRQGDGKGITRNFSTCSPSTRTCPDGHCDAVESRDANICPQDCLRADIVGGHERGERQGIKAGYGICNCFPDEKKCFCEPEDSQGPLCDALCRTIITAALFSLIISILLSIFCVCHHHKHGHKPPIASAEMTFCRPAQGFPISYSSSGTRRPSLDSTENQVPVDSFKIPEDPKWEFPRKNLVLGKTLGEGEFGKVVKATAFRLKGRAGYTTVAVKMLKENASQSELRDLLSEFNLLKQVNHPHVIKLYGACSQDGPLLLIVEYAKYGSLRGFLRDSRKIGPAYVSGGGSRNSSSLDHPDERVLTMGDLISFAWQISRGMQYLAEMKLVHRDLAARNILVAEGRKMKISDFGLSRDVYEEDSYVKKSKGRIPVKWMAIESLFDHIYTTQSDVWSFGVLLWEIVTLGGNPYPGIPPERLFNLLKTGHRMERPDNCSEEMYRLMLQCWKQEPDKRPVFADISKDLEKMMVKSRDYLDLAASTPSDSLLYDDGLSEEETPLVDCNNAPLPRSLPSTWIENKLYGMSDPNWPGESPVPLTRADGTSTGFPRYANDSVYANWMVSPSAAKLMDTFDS
T2 sequence (O60609 32-374 limits assumed): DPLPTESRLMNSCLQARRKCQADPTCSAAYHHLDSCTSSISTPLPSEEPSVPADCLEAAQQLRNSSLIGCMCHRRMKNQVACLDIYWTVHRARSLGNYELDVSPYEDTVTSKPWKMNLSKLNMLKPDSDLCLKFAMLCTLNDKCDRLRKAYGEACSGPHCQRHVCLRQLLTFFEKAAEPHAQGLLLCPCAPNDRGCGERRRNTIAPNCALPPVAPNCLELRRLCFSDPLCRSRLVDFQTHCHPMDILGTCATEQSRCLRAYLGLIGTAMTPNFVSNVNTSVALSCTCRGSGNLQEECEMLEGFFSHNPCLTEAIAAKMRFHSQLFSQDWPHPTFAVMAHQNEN
T2 sequence (P35546 29-1115): as the sequence (P35546 29-1115) above
T5 sequence (Q62997 25-430 limits assumed): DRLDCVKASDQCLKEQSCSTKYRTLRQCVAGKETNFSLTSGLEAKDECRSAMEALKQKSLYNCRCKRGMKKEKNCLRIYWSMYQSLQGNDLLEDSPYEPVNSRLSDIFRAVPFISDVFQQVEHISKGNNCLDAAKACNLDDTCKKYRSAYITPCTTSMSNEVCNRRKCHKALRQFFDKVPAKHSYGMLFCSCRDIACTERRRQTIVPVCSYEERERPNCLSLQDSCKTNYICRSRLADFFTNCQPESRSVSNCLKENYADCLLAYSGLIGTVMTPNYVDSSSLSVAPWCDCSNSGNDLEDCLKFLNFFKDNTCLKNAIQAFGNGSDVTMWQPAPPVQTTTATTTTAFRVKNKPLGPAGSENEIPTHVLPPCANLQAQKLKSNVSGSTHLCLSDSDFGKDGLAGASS
T5 sequence (P35546 29-1115): as the sequence (P35546 29-1115) above
T4 sequence (P07949 29-1114): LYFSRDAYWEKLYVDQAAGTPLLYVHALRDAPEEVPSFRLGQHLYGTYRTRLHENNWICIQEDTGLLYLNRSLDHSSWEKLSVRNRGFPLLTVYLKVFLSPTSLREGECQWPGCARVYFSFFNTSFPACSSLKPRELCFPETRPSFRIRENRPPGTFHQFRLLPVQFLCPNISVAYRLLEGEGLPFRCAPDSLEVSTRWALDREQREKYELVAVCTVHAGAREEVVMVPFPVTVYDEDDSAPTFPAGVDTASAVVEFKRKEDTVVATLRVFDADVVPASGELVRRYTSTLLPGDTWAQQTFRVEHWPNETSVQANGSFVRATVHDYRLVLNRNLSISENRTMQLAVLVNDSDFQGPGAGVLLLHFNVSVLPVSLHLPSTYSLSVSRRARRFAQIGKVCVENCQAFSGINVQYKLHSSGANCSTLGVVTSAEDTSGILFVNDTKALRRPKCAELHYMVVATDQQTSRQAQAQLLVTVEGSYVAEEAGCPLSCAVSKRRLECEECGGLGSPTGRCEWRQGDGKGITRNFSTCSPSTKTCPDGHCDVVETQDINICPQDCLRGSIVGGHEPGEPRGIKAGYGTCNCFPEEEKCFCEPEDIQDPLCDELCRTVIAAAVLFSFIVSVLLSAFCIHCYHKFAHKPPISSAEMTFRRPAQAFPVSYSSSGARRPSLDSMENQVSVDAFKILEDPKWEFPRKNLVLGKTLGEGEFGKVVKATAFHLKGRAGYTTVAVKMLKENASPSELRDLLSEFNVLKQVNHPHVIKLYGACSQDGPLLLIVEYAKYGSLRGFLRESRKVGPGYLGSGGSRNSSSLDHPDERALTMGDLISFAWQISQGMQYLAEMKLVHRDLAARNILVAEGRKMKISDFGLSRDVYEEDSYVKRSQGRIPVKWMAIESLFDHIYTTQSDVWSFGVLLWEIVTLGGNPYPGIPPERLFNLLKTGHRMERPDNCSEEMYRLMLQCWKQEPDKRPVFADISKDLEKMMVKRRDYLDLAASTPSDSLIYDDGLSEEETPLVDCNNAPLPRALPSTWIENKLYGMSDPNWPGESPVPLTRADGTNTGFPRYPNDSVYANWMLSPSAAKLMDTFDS
T4 sequence (P56159 25-429 limits assumed): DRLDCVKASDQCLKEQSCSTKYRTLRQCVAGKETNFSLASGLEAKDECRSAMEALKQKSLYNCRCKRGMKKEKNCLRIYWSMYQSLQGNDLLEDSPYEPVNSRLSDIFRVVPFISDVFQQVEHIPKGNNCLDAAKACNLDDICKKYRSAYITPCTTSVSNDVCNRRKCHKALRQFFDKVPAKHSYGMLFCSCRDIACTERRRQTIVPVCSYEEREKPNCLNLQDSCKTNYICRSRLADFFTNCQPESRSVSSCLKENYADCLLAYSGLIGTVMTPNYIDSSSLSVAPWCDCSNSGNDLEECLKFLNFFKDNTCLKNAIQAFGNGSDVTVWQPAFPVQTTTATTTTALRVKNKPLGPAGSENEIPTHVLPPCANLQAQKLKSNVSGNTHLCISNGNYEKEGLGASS
T3 sequence (O00451 22-444 limits assumed): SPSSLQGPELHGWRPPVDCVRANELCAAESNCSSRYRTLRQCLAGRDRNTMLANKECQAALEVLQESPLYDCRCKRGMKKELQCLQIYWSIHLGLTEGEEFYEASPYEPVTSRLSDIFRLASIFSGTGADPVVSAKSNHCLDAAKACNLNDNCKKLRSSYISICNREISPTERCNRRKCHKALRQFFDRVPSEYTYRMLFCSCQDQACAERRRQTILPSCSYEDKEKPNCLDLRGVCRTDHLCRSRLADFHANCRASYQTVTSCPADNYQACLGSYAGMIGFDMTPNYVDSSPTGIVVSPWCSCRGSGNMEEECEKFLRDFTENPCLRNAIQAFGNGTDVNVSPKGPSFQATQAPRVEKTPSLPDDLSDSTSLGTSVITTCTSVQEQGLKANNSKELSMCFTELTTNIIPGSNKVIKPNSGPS
T3 sequence (P07949 29-1114): as the sequence (P07949 29-1114) above

Row | RET phosphorylation (RET [1]) | RET phosphorylation (GFRα3/RET) | RET phosphorylation at 60 min (GFRα2/RET) | RET phosphorylation (RET [3]) | RET phosphorylation (GFRα1/RET) | Molecule | maximal effect, luciferase activity [2] [fold over control] | minimal ligand dose necessary to induce luciferase activity above control [2] [pM] | luciferase activity versus ligand concentration [2] | TH promoter activity (luciferase) ([2]; 2 nM GDNF, 10 minutes then overnight in regular medium, or overnight)
1 | No RET phosphorylation was detected | induced RET phosphorylation |  |  |  | ARTN: artemin, GDNF family ligand of GFRα3; purchased from Peprotech | 2.78±0.44 | 75 | dose-dependent increase | 
2 |  |  | not detectable |  |  | NRTN: neuturin, GDNF family ligand of GFRα2; purchased from Peprotech (protein, UniProt Q99748 96-197, looked up) Neurturin: ARLGARPCGLRELEVRVSELGLGYASDETVLFRYCAGACEAAARVYDLGLRRLRQRRRLRRERVRAQPCCRPTAYEDEVSFLDAHSRYHTVHELSARECACV |  |  | dose-dependent increase | 
3 | No RET phosphorylation was detected |  |  | induced | induced RET phosphorylation | GDNF: Glial cell line-derived neurotrophic factor, GFRα1 ligand; purchased from Peprotech (protein, UniProt P39905 78-211, looked up) Glial cell line-derived …: SPDKQMAVLPRRERNRQAAAANPENSRGKGRRGQRGKNRGCVLTAIHLNVTDLGLGYETKEELIFRYCSGSCDAAETTYDKILKNLSRNRRLVSDKVGQACCRPIAFDDDLSFLDDNLVYHILRKHSAKRCGCI | 2.76±0.32 | 75 | dose-dependent increase | increases TH promoter activity

From US20160045487A1, “COMPOSITIONS AND METHODS FOR TREATING NEUROPATHY” (CHILDEREN'S MEDICAL CENTER CORPORATION, priority 2013, published 2016)
